Measured values: publication PMC6547725

Molecular target: KRAS (aa 1–170, Homo sapiens), wild type (Homo sapiens) (UniProt P01116)

## RasGAP (aa 722–1056, Homo sapiens) (domain or fragment)
  GTPase activity of KRAS wild type (GTP hydrolysis over time, HPLC) with 0.25 μM RAS-GAP; at 2.5 μM and 25 μM too fast to be resolved: 3.5 fold
